Results as given in article PMC9482650, “Quantitative fragmentomics allow affinity mapping of interactomes” (Nature Communications, 2022).

Tests used:
Experiment in all cases: holdup assay
Set-up in all cases: key: below the threshold = too weak to quantify, mostly under pKd 3.1 to 4
Inadl_8, Q8NI35 = molecular target: Inadl_8, Q8NI35
NHERF4_1, Q86UT5-2 = molecular target: NHERF4_1, Q86UT5-2
TJP1_3, Q07157 = molecular target: TJP1_3, Q07157
SNTG1, Q9NSN8 = molecular target: T1, SNTG1, Q9NSN8
T1 sequence (Q9NSN8 52-150, limits assumed, looked up): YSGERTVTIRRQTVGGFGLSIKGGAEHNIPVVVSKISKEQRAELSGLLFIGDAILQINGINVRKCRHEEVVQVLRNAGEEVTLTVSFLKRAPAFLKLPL

DLG3_1, Q92796 = molecular target: T2, DLG3_1, Q92796
T2 sequence (Q92796 125-227, limits assumed, looked up): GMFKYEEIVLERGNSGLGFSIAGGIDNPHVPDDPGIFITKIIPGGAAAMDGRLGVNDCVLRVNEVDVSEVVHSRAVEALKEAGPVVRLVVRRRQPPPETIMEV

LAP2, Q96RT1 = molecular target: LAP2, Q96RT1
FRMPD1, Q5SYB0 = molecular target: T3, FRMPD1, Q5SYB0
T3 sequence (Q5SYB0 52-145, limits assumed, looked up): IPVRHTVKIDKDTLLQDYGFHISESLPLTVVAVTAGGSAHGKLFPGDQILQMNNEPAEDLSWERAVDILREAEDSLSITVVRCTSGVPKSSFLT

HTRA1, Q92743 = molecular target: HTRA1, Q92743
PDZRN3_1, Q9UPQ7 = molecular target: T4, PDZRN3_1, Q9UPQ7
T4 sequence (Q9UPQ7 244-349, limits assumed, looked up): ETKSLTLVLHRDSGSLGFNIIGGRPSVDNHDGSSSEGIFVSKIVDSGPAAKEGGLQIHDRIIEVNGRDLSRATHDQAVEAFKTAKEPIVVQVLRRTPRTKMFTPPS

SCRIB_3, Q14160 = molecular target: SCRIB_3, Q14160
LIN7B, Q9HAP6 = molecular target: T5, LIN7B, Q9HAP6
T5 sequence (Q9HAP6 88-185, limits assumed, looked up): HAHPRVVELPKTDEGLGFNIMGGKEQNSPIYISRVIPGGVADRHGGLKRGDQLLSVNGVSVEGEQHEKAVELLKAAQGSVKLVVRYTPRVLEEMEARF

IL16_4, Q14005 = molecular target: IL16_4, Q14005
GORASP2, Q9H8Y8 = molecular target: GORASP2, Q9H8Y8
PCLO, Q9Y6V0 = molecular target: T6, PCLO, Q9Y6V0
T6 sequence (Q9Y6V0 4491-4600, limits assumed, looked up): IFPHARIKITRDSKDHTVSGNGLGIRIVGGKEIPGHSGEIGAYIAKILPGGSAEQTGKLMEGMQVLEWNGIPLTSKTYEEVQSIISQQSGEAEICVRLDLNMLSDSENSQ

MPP6, Q9NZW5 = molecular target: T7, MPP6, Q9NZW5
T7 sequence (Q9NZW5 125-219, limits assumed, looked up): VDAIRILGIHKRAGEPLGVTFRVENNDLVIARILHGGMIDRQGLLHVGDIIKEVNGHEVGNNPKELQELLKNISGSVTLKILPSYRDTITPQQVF

DLG3_2, Q92796 = molecular target: T8, DLG3_2, Q92796
T8 sequence (Q92796 221-321, limits assumed, looked up): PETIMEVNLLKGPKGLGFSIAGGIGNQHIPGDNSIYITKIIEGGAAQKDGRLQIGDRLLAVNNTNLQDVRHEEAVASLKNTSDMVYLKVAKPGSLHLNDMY

GRIP1_2, Q9Y3R0 = molecular target: T9, GRIP1_2, Q9Y3R0
T9 sequence (Q9Y3R0 145-248, limits assumed, looked up): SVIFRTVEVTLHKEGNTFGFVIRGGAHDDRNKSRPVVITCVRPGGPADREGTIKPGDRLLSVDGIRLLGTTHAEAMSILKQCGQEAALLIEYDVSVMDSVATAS

GRID2IP_1, A4D2P6 = molecular target: GRID2IP_1, A4D2P6
HTRA2, O43464 = molecular target: HTRA2, O43464
FRMPD2_2, Q68DX3 = molecular target: FRMPD2_2, Q68DX3
DVL3, Q92997 = molecular target: T10, DVL3, Q92997
T10 sequence (Q92997 244-331, limits assumed, looked up): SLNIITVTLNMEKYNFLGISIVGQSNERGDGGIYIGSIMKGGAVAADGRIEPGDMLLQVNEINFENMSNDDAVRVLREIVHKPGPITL

LIN7A, O14910 = molecular target: T11, LIN7A, O14910
T11 sequence (O14910 103-200, limits assumed, looked up): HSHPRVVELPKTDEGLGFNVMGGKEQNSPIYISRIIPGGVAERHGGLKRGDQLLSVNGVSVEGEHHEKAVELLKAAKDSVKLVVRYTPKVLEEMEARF

APBA2_1, Q99767 = molecular target: T12, APBA2_1, Q99767
T12 sequence (Q99767 563-664, limits assumed, looked up): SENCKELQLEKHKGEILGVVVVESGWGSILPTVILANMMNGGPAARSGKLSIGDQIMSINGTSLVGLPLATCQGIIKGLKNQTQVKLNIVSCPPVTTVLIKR

LNX1_3, Q8TBB1 = molecular target: LNX1_3, Q8TBB1
PDLIM1, O00151 = molecular target: PDLIM1, O00151
ARHGEF12, Q9NZN5-2 = molecular target: ARHGEF12, Q9NZN5-2
[1] = plain residues with an end cap or a label only (N-terminal biotin on a linker: (peg)3)
[2] = plain residues with an end cap or a label only (N-terminal biotin on a linker: ahx)
[3] = plain residues with an end cap or a label only (N-terminal biotin on a linker: ado-ado)

Chain of SCRIB_3, Q14160 (Q14160 999-1103): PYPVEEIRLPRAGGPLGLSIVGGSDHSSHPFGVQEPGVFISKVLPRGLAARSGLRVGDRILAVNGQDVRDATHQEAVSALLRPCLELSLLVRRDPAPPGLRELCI
Chain of ARHGEF12, Q9NZN5-2 (Q9NZN5 other isoform, or with tags, fused parts or gaps): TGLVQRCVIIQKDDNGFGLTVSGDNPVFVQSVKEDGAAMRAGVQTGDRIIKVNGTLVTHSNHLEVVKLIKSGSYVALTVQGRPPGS
Chain of IL16_4, Q14005 (Q14005 1229-1329): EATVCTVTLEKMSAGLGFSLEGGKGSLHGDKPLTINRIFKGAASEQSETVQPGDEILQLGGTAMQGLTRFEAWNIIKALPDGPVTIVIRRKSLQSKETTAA
Chain of GRID2IP_1, A4D2P6 (A4D2P6 1-87): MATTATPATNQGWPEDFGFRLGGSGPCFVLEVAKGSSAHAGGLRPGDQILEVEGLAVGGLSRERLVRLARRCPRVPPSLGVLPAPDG
Chain of Inadl_8, Q8NI35 (Q8NI35 1425-1530): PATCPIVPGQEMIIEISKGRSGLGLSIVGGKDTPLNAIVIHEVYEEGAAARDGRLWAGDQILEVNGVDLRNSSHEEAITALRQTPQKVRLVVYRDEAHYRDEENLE
Chain of PDLIM1, O00151 (O00151 1-87): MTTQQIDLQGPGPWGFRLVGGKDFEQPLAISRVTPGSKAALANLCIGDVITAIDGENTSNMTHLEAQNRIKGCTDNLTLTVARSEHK
Chain of HTRA1, Q92743 (Q92743 360-477): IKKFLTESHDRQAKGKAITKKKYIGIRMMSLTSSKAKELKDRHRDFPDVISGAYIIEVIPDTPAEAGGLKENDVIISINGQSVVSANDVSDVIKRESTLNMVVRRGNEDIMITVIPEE
Chain of NHERF4_1, Q86UT5-2 (Q86UT5 other isoform, or with tags, fused parts or gaps): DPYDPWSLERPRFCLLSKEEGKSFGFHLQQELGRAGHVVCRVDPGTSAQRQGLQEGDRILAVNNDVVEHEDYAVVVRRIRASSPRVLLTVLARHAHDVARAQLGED
Chain of HTRA2, O43464 (O43464 355-458): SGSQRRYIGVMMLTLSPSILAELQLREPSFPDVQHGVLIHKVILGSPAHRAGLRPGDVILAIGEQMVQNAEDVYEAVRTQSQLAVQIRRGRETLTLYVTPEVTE
Chain of LNX1_3, Q8TBB1 (Q8TBB1 500-596): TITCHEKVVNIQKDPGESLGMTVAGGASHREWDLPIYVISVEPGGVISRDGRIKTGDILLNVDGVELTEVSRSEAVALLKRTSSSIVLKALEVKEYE
Chain of TJP1_3, Q07157 (Q07157 416-512): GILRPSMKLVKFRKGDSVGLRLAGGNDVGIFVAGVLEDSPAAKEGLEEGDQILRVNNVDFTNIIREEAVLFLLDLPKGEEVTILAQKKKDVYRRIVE
Chain of LAP2, Q96RT1 (Q96RT1 other isoform, or with tags, fused parts or gaps): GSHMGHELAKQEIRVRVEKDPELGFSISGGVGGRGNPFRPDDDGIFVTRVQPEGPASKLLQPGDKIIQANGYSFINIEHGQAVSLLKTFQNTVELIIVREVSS
Chain of FRMPD2_2, Q68DX3 (Q68DX3 944-1038): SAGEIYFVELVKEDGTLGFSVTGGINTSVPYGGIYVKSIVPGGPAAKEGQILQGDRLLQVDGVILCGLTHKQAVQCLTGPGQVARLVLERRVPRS

Question: RYEDTTLVEDTVL [WNV-NS5, Q9Q6P4] was tested. Which pKd (Inadl_8, Q8NI35; [1]) did it give?
Answer: below the threshold

Question: And the pKd (NHERF4_1, Q86UT5-2; [1])?
Answer: 4.17

Question: And the pKd (TJP1_3, Q07157; [1])?
Answer: below the threshold

Question: And the pKd (SNTG1, Q9NSN8; [1])?
Answer: below the threshold

Question: What about the pKd (DLG3_1, Q92796; [1]) of the same binder?
Answer: below the threshold

Question: What about the pKd (LAP2, Q96RT1; [1]) of the same binder?
Answer: below the threshold

Question: And the pKd (FRMPD1, Q5SYB0; [1])?
Answer: below the threshold

Question: What about the pKd (HTRA1, Q92743; [1]) of the same binder?
Answer: 4.58

Question: And the pKd (PDZRN3_1, Q9UPQ7; [1])?
Answer: 3.61

Question: What about the pKd (SCRIB_3, Q14160; [1]) of the same binder?
Answer: 3.97

Question: And the pKd (LIN7B, Q9HAP6; [1])?
Answer: below the threshold

Question: And the pKd (IL16_4, Q14005; [1])?
Answer: 3.56

Question: What about the pKd (GORASP2, Q9H8Y8; [1]) of the same binder?
Answer: below the threshold

Question: And the pKd (PCLO, Q9Y6V0; [1])?
Answer: below the threshold

Question: What about the pKd (MPP6, Q9NZW5; [1]) of the same binder?
Answer: below the threshold

Question: What about the pKd (DLG3_2, Q92796; [1]) of the same binder?
Answer: 3.76

Question: What about the pKd (GRIP1_2, Q9Y3R0; [1]) of the same binder?
Answer: below the threshold

Question: And the pKd (GRID2IP_1, A4D2P6; [1])?
Answer: below the threshold

Question: And the pKd (HTRA2, O43464; [1])?
Answer: below the threshold

Question: And the pKd (FRMPD2_2, Q68DX3; [1])?
Answer: below the threshold

Question: And the pKd (DVL3, Q92997; [1])?
Answer: below the threshold

Question: And the pKd (LIN7A, O14910; [1])?
Answer: 3.59

Question: What about the pKd (APBA2_1, Q99767; [1]) of the same binder?
Answer: below the threshold

Question: What about the pKd (LNX1_3, Q8TBB1; [1]) of the same binder?
Answer: below the threshold

Question: What about the pKd (PDLIM1, O00151; [1]) of the same binder?
Answer: below the threshold

Question: And the pKd (ARHGEF12, Q9NZN5-2; [1])?
Answer: 3.92

Question: How did the pKd (Inadl_8, Q8NI35; [2]) turn out when QPRTWLQSPV [RTKN, Q9BST9] was run?
Answer: 4.89

Question: And the pKd (NHERF4_1, Q86UT5-2; [2])?
Answer: below the threshold

Question: And the pKd (TJP1_3, Q07157; [2])?
Answer: below the threshold

Question: And the pKd (SNTG1, Q9NSN8; [2])?
Answer: 3.52

Question: What about the pKd (DLG3_1, Q92796; [2]) of the same binder?
Answer: below the threshold

Question: And the pKd (LAP2, Q96RT1; [2])?
Answer: 4.42

Question: What about the pKd (FRMPD1, Q5SYB0; [2]) of the same binder?
Answer: below the threshold

Question: What about the pKd (HTRA1, Q92743; [2]) of the same binder?
Answer: below the threshold

Question: And the pKd (PDZRN3_1, Q9UPQ7; [2])?
Answer: below the threshold

Question: What about the pKd (SCRIB_3, Q14160; [2]) of the same binder?
Answer: 3.67

Question: And the pKd (LIN7B, Q9HAP6; [2])?
Answer: below the threshold

Question: What about the pKd (IL16_4, Q14005; [2]) of the same binder?
Answer: below the threshold

Question: And the pKd (GORASP2, Q9H8Y8; [2])?
Answer: below the threshold

Question: What about the pKd (PCLO, Q9Y6V0; [2]) of the same binder?
Answer: below the threshold

Question: What about the pKd (MPP6, Q9NZW5; [2]) of the same binder?
Answer: below the threshold

Question: And the pKd (DLG3_2, Q92796; [2])?
Answer: 4.04

Question: What about the pKd (GRIP1_2, Q9Y3R0; [2]) of the same binder?
Answer: below the threshold

Question: And the pKd (GRID2IP_1, A4D2P6; [2])?
Answer: below the threshold

Question: And the pKd (HTRA2, O43464; [2])?
Answer: below the threshold

Question: And the pKd (FRMPD2_2, Q68DX3; [2])?
Answer: below the threshold

Question: And the pKd (DVL3, Q92997; [2])?
Answer: below the threshold

Question: And the pKd (LIN7A, O14910; [2])?
Answer: below the threshold

Question: And the pKd (APBA2_1, Q99767; [2])?
Answer: below the threshold

Question: What about the pKd (LNX1_3, Q8TBB1; [2]) of the same binder?
Answer: below the threshold

Question: What about the pKd (PDLIM1, O00151; [2]) of the same binder?
Answer: below the threshold

Question: And the pKd (ARHGEF12, Q9NZN5-2; [2])?
Answer: 3.99

Question: NISYRRESAI [KCNJ4, P48050] was tested. Which pKd (Inadl_8, Q8NI35; [3]) did it give?
Answer: below the threshold

Question: What about the pKd (NHERF4_1, Q86UT5-2; [3]) of the same binder?
Answer: 3.48

Question: What about the pKd (TJP1_3, Q07157; [3]) of the same binder?
Answer: below the threshold

Question: And the pKd (SNTG1, Q9NSN8; [3])?
Answer: below the threshold

Question: And the pKd (DLG3_1, Q92796; [3])?
Answer: below the threshold

Question: And the pKd (LAP2, Q96RT1; [3])?
Answer: below the threshold

Question: And the pKd (FRMPD1, Q5SYB0; [3])?
Answer: below the threshold

Question: And the pKd (HTRA1, Q92743; [3])?
Answer: below the threshold

Question: And the pKd (PDZRN3_1, Q9UPQ7; [3])?
Answer: 4.43

Question: What about the pKd (SCRIB_3, Q14160; [3]) of the same binder?
Answer: 4.91

Question: What about the pKd (LIN7B, Q9HAP6; [3]) of the same binder?
Answer: 3.74

Question: And the pKd (IL16_4, Q14005; [3])?
Answer: below the threshold

Question: What about the pKd (GORASP2, Q9H8Y8; [3]) of the same binder?
Answer: below the threshold

Question: And the pKd (PCLO, Q9Y6V0; [3])?
Answer: below the threshold

Question: What about the pKd (MPP6, Q9NZW5; [3]) of the same binder?
Answer: below the threshold

Question: What about the pKd (DLG3_2, Q92796; [3]) of the same binder?
Answer: 4.35

Question: What about the pKd (GRIP1_2, Q9Y3R0; [3]) of the same binder?
Answer: below the threshold

Question: And the pKd (GRID2IP_1, A4D2P6; [3])?
Answer: below the threshold

Question: What about the pKd (HTRA2, O43464; [3]) of the same binder?
Answer: below the threshold

Question: What about the pKd (FRMPD2_2, Q68DX3; [3]) of the same binder?
Answer: below the threshold

Question: What about the pKd (DVL3, Q92997; [3]) of the same binder?
Answer: below the threshold

Question: What about the pKd (LIN7A, O14910; [3]) of the same binder?
Answer: below the threshold

Question: And the pKd (APBA2_1, Q99767; [3])?
Answer: below the threshold

Question: What about the pKd (LNX1_3, Q8TBB1; [3]) of the same binder?
Answer: below the threshold

Question: What about the pKd (PDLIM1, O00151; [3]) of the same binder?
Answer: below the threshold

Question: What about the pKd (ARHGEF12, Q9NZN5-2; [3]) of the same binder?
Answer: below the threshold
